One molecule from PMC9484696, “Identification of Aedes aegypti salivary gland proteins interacting with human immune receptor proteins” (PLoS Neglected Tropical Diseases, 2022) can be followed below.

The experiment addresses T1, ectodomain of human CD4 (26-396 amino acid residues), recombinant (human, UniProt P01730 26-396).
T1 construct: CD4, human, ectodomain, residues 26-396; Cloned into pfastbac1 with the GP64 signal peptide for secretion and a preScission protease site; also called recombinant CD4; CD4 protein
The experiment is described as follows: ELISA; 5 μg salivary gland protein coated overnight at 4°C on high binding 96-well plates, blocked with 1% BSA in PBST; 1 μg CD4 or DC-SIGN ectodomain added at 37°C for 1 h; detected with rabbit anti-CD4 or HRP anti-DC-SIGN monoclonal antibody, TMB, read at 450 nm. Particulars: both partners purified.

B1: recombinant Ae. aegypti venom allergen 1 (AaVA-1) (natural protein, Aedes aegypti, UniProt A0A1S4EWW7 22-255, looked up)
chain: NYCDQSLCRRGPHVACNAPTQFGSACGQEPKFVKMDARMKNLLLKKHNELRAEIACGKHGFPQAARMPTLVWDDELAHIASFNARKCIFAHDKCRNTREFKFAGQNLAITAFAGYNFQAADRAENFTQEWFNEHKDCPKSYVDSYPMSHSGPQIGHFTQMVNDRAWKMGCSMVHYKNGRVIKYYLVCNYSMTNMIEEPIYTRGSAGSKCQTGQNPQYRGLCSPREKVRSESYRG
notes: Made with the GP64 signal peptide, so its own signal peptide was probably left out; also called AVAa-1
With B1, the binding result is “binds”.
